Our source for the OD450 nm and average fluorescence intensity values is patent US20200347144A1 (SHANGHAI HYAMAB BIOTECH, published 2020).

B1: 52F4G2 (antibody, V domains shown)
VH: QVQLQESGPGLVKPSETLSLTCAVSGYSISSGYYWGWIRQPPGKGLEWIGSIFHSGSSYYNPSLKSRVTISVDTSKNQFSLKLRSVTAADTAVYYCARESSGWNCFDYWGQGTLVTVSS
VL: DIQMTQSPSTLSASVGDRVTITCRASQTISTWLAWYQQKPGKAPKLLIYKASNLESGVPSRFSGSGSGTEFTLTISSLQPDDFATYYCQQYNSYSITFGQGTRLEIK
B2: 289B6G6 (antibody, V domains shown)
VH: QVQLQESGPGLVRPSETLSLTCAVSGYSISSGYYWGWIRQPPGKGLEWIGSIFHSGNTYYNPSLKSRVIVSGDTSKNQFSLKLSSVTAADTAVYYCTRESSGFNVFDIWGQGTMVTVSS
VL: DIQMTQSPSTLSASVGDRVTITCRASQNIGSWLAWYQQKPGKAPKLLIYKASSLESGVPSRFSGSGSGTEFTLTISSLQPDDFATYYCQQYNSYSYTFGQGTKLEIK
B3: 170D7F2 (antibody, V domains shown)
VH: QVQLVQSGAEVKKPGASVKVSCKASGYTFTSYDINWVRQATGQGLEWMGWMNPNSGNTGYAQKFQGRVTMTRNTSISTAYMELSSLRSEDTAVYYCARETGPFDYWGQGTLVTVSS
VL: DIQMTQSPSSLSASVGDRVTITCRASQRINNYLNWYQQKPGKAPKLLIYGASSLQSGVPSRFSGSGSGTDFTLTISSLQPEDFATYYCQQSYSTPFTFGPGTKVDIK
B4: 182A5B3 (antibody, V domains shown)
VH: B3 VH with A61V
VL: not shown
B5: 118F3A2 (antibody, V domains shown)
VH: QVQLQQWGAGLLKPSETLSLTCGVYGGSFSTNYWSWIRQSPGKGLEWIGEINHSGNTEYNPSLKSRLTISIDTSKNQFSLKLTSVTAADTAVYYCARMGYHSPSFDFWGQGVLVTVSS
VL: KIVMTQSPATLSVSPGERATLPCRVSQGIGSNLAWYQQKPGQAPRLLIYGASTRATGVPARFSGSGSGSEFTLTISSLQSEDLALYYCQQYNNWPLTFGGGTKVEIK
B6: 172E3E3 (antibody, V domains shown)
VH: QVQLQESGPGLVKPSGTLSLTCAVSGGSISSSNWWSWVRQPPGKGLEWIGEIYHSGSTNYNPSLKSRVTISVDKSKNQLSLNLSSVTAADTAVYYCARQGGVAGTLYWYFDLWGRGTLVTVSS
VL: DIVMTQSPLSLPVTPGEPASISCRSSQGLLHSNGYNYLDWYLQKPGQSPQLLIYLGSNRASGVPDRFIGSGSGTDFTLKIRRVEAEDVGVYYCMQVLQTPWTFGQGTKVEIK

Residue numbers refer to the chain shown, from its start.

The first assay has as its target T1, hFc-tagged human 4-1BB extracellular domain protein (4-1BB-hFc) (human, UniProt Q07011 24-186, limits assumed).
T1 construct: also called immunogen A; 4-1BB^ECD-hFc; not shown: human IgG Fc fragment (hFc) of the pCpC vector
Description: ELISA, coated human 4-1BB-hFc; Ab 10 ug/ml. As to the method:
(§1) The purified immunogen A (4-1BB-hFc), monkey 4-1BB-his, and mouse 4-1BB-his obtained in Example 1 [for the preparation method, see step 1 of Example 1, preparation of immunogen A], of which the extracellular domain of monkey-derived 4-1BB protein (purchased from ACRO biosystems), the extracellular domain of mouse 4-1BB protein (purchased from sino biological) or other immune detection point proteins respectively were diluted with PBS to a final concentration of 1.0 μg/mL, then added with […] per well to 96-well ELISA plate. It was sealed with plastic film and incubated at 4° C. overnight. The next day, the plate was washed twice with the plate-washing solution [PBS containing 0.01% (v/v) Tween20] and blocking solution [PBS containing 0.01% (v/v) Tween 20 and 1% (v/v) BSA] was added and blocked at room temperature for 2 hours. The blocking solution was discarded and 100 μl of the purified 4-1BB antibody obtained in Example 2 was added per well. After incubated at 37° C. for 2 hours, the plate was washed 3 times with a plate-washing solution [PBS containing 0.01% (v/v) Tween20]. A secondary antibody (purchased from Sigma) labeled with HRP (horseradish peroxidase) was added, and after incubated at 37° C. for 2 hours, the plate was washed 3 times with a plate-washing solution [PBS containing 0.01% (v/v) Tween20]. 100 μl of TMB substrate was added per well. After incubated for 30 minutes at room temperature, 100 μl of stop buffer (1.0N HCl) was added per well. The A450 nm values were read using an ELISA plate reader (SpectraMax 384plus, Molecular Device).
Molecule B1 returned an OD450 nm of 3.06 OD450 nm.

The molecule B2 registered an OD450 nm of 2.8 OD450 nm.

In turn, B3 gave an OD450 nm of 3.44 OD450 nm.

B4: the OD450 nm is 3.5 OD450 nm.

In turn, B5 showed an OD450 nm of 2.73 OD450 nm.

The molecule B6 showed an OD450 nm of 3.43 OD450 nm.

The target of the next assay is T2, human 4-1BB, full length, on transfected cells (human, UniProt Q07011 24-255).
T2 construct: whole, on cells; also called CHOK1-h4-1BB
T2 sequence (Q07011 24-255): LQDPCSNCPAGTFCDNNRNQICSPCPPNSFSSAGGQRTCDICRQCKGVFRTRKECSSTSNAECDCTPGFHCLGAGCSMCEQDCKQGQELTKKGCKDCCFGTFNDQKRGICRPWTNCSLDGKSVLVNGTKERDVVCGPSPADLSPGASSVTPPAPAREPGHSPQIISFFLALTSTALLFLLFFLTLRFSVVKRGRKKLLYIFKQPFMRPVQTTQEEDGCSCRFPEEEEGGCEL
Description: FACS, CHOK1-h4-1BB cells; Ab 0.016 ug/ml. The source says:
(§2) The pIRES plasmid carrying the full-length gene of monkey-derived […] (the preparation method is the same as the preparation method of the pCpC vector carrying the human-derived IgG Fc fragment (hFc) in “Preparation of immunogen A” of the step (1) in Example 1, in which the database accession number of the amino acid sequence of the extracellular region of monkey 4-1BB protein (Phe19-Thr239) is G7PSE7) was transfected into CHOK1 cell line to obtain CHOK1 stable transfected cell line containing monkey 4-1BB (herein referred to as CHOK1-c4-1BB stable cell line). The CHOK1-h4-1BB stable cell line and the CHOK1-c4-1BB stable cell line were expanded and cultivated to 90% confluence in T-75 cell culture flasks. The medium was exhausted, and washed twice with HBSS buffer (Hanks Balanced Salt Solution, purchased from Invitrogen), and then the cells were treated and collected with enzyme-free cell dissociation solution (Versene solution, purchased from Life Technology). The cells were washed twice with HBSS buffer, and after cell counting, the cells were diluted with HBSS buffer to 2×10⁶ cells per ml, and 1% goat serum blocking solution was added, the percentage being the mass percentage. It was incubated on ice for 30 minutes, and then washed twice with HBSS buffer by centrifugation. The collected cells were suspended in FACS buffer (HBSS containing 1% BSA, the percentage was the mass percentage) to 2×10⁶ cells/mL, and 100 μl per well was added to a 96-well FACS reaction plate. The purified 4-1BB antibody test sample obtained in Example 2 was added, 100 microliters per well and incubated on ice for 2 hours. […] It was washed three times with FACS buffer by centrifugation, and 100 μl of fixative [4% (v/v) paraformaldehyde] per well was added to suspend cells, and washed twice with FACS buffer after 10 minutes by centrifugation. The cells were suspended with 100 microliters of FACS buffer, and the results were detected and analyzed with FACS (FACS Calibur, purchased from BD).
In general terms: A flow cytometer gives signals particle by particle.
B1: the average fluorescence intensity turned out to be 141 MFI.

Turning to B2, the average fluorescence intensity was determined as 101 MFI.

On to B3, for which the average fluorescence intensity was 48.8 MFI.

Take B4: the average fluorescence intensity is 52.7 MFI.

For the molecule B5, the average fluorescence intensity was determined as 125 MFI.

For B6, the average fluorescence intensity was found to be 46.9 MFI.

The target in another assay is T2, human 4-1BB, full length, on …. The assay can be described thus: FACS, CHOK1-h4-1BB cells; Ab 0.08 ug/ml.
Text: as §2
Molecule B1 yielded an average fluorescence intensity of 410 MFI.

In the case of B2, the average fluorescence intensity turned out to be 453 MFI.

Take B3: the average fluorescence intensity was 183 MFI.

The molecule B4 returned an average fluorescence intensity of 200 MFI.

Take B5: the average fluorescence intensity was found to be 346 MFI.

In turn, B6 yielded an average fluorescence intensity of 172 MFI.

For another assay, the target named is T1, hFc-tagged human 4-1BB extracellular …. Description: ELISA, coated human 4-1BB-hFc; Ab 0.08 ug/ml. As to the method: as §1
The molecule B1 yielded an OD450 nm of 3.08 OD450 nm.

B2 gave an OD450 nm of 2.73 OD450 nm.

As to B3, the OD450 nm was 3.24 OD450 nm.

Regarding B4, the OD450 nm was 3.29 OD450 nm.

In the case of B5, the OD450 nm was 2.26 OD450 nm.

The molecule B6 showed an OD450 nm of 3.18 OD450 nm.

In the next assay the target is T3, monkey 4-1BB on CHOK1 cells (monkey).
T3 construct: whole, on cells; also called CHOK1-c4-1BB
The assay can be described thus: FACS, CHOK1-c4-1BB cells; Ab 0.08 ug/ml.
Text: as §2
With B1, the average fluorescence intensity is 130 MFI.

As to B2, the average fluorescence intensity came to 179 MFI.

Molecule B3 showed an average fluorescence intensity of 96.3 MFI.

In turn, B4 returned an average fluorescence intensity of 118 MFI.

For the molecule B5, the average fluorescence intensity turned out to be 114 MFI.

In turn, B6 gave an average fluorescence intensity of 47 MFI.

Another assay concerns the target T3, monkey 4-1BB on CHOK1 cells. Description: FACS, CHOK1-c4-1BB cells; Ab 0.4 ug/ml.
Text: as §2
Molecule B1 returned an average fluorescence intensity of 469 MFI.

In the case of B2, the average fluorescence intensity is 466 MFI.

Take B3: the average fluorescence intensity is 304 MFI.

B4 registered an average fluorescence intensity of 373 MFI.

With B5, the average fluorescence intensity is 408 MFI.

With B6, the average fluorescence intensity worked out at 159 MFI.

The target in the next assay is T2, human 4-1BB, full length, on …. The assay can be described thus: FACS, CHOK1-h4-1BB cells; Ab 0.0032 ug/ml.
Text: as §2
Molecule B1 had an average fluorescence intensity of 38.3 MFI.

Take B2: the average fluorescence intensity was 26.7 MFI.

With B3, the average fluorescence intensity was found to be 14 MFI.

As to B4, the average fluorescence intensity stood at 14.8 MFI.

On to B5, for which the average fluorescence intensity is 34.4 MFI.

The molecule B6 displayed an average fluorescence intensity of 13 MFI.

For the next assay the target is unchanged. The assay can be described thus: FACS, CHOK1-h4-1BB cells; Ab 0.4 ug/ml.
Text: as §2
Molecule B1 registered an average fluorescence intensity of 584 MFI.

As to B2, the average fluorescence intensity came out at 1520 MFI.

Regarding B3, the average fluorescence intensity stood at 540 MFI.

With B4, the average fluorescence intensity worked out at 530 MFI.

The molecule B5 gave an average fluorescence intensity of 508 MFI.

With B6, the average fluorescence intensity is 413 MFI.

The next assay addresses T1, hFc-tagged human 4-1BB extracellular …. The assay can be described thus: ELISA, coated human 4-1BB-hFc; Ab 0.0001 ug/ml. The procedure:
as §1
(ELISA stands for enzyme-linked immunosorbent assay.)
Consider B1, for which the OD450 nm worked out at 0.26 OD450 nm.

Regarding B2, the OD450 nm was 0.07 OD450 nm.

B3 gave an OD450 nm of 0.13 OD450 nm.

Regarding B4, the OD450 nm turned out to be 0.13 OD450 nm.

As to B5, the OD450 nm amounted to 0.43 OD450 nm.

Molecule B6 yielded an OD450 nm of 0.14 OD450 nm.

A further assay deals with T2, human 4-1BB, full length, on …. Description: FACS, CHOK1-h4-1BB cells; Ab 0.00013 ug/ml.
Text: as §2
B1 yielded an average fluorescence intensity of 4.8 MFI.

Take B2: the average fluorescence intensity worked out at 4 MFI.

Turning to B3, the average fluorescence intensity was determined as 2.6 MFI.

For the molecule B4, the average fluorescence intensity was determined as 2.6 MFI.

For B5, the average fluorescence intensity worked out at 4.4 MFI.

B6 showed an average fluorescence intensity of 13.8 MFI.

The next assay has as its target T3, monkey 4-1BB on CHOK1 cells. The assay can be described thus: FACS, CHOK1-c4-1BB cells; Ab 0.00013 ug/ml.
Text: as §2
For B1, the average fluorescence intensity was found to be 3.2 MFI.

Consider B2, for which the average fluorescence intensity was determined as 3 MFI.

B3: the average fluorescence intensity turned out to be 2.6 MFI.

Molecule B4 gave an average fluorescence intensity of 2.7 MFI.

For B5, the average fluorescence intensity came out at 2.9 MFI.

In turn, B6 displayed an average fluorescence intensity of 17.6 MFI.

A further assay concerns the target T1, hFc-tagged human 4-1BB extracellular …. The assay can be described thus: ELISA, coated human 4-1BB-hFc; Ab 0.0032 ug/ml. As to the method: as §1
With B1, the OD450 nm came to 0.89 OD450 nm.

Take B2: the OD450 nm is 0.34 OD450 nm.

The molecule B3 displayed an OD450 nm of 0.48 OD450 nm.

The molecule B4 showed an OD450 nm of 0.38 OD450 nm.

Regarding B5, the OD450 nm turned out to be 0.54 OD450 nm.

In the case of B6, the OD450 nm turned out to be 0.51 OD450 nm.
